Holding throughout (test): BLI
Common to all, as to settings: biotinylated; BLI (BLItz): 20 mM Tris-HCl pH 7.4, 80 mM NaCl, 20 mM KCl, 1 mM DTT, room temperature; […] (Triton X-100, Tween-20)

Data set [1] concerns CCHFV N protein stalk domain (Crimean Congo Hemorrhagic fever virus strain 10200?).
In data set [2] the test system is CCHFV nucleocapsid (N) protein, wild type (Crimean Congo Hemorrhagic fever virus strain 10200).
The test system is the same in data set [3]. The source holds these as a separate data set.
Data set [4] has as its system CCHFV N protein stalk domain (Crimean Congo Hemorrhagic fever virus strain 10200?). This is another data set of the same source.
For data set [5], the system named is CCHFV nucleocapsid (N) protein, wild type (Crimean Congo Hemorrhagic fever virus strain 10200). The source holds these as a separate data set.

Here are results for one substance from paper PMC8608356.

On to CCHFV S-segment mRNA 5' UTR, for which the Kd in data set [1] came out at 36.7 nM; in data set [2] it was 37.3 nM; in data set [3] it was 67 nM; in data set [4], 54 nM; in data set [5], 54 nM.
